Measurements from PMC2814127.

Key:
[1] = biological target: actin (rabbit fast twitch skeletal muscle), reconstituted as actin filament in gelsolin-extracted bovine myocardium (rabbit) (UniProt P68135)
[2] = biological target: actin (rabbit fast twitch skeletal muscle), reconstituted as actin filament in gelsolin-extracted bovine myocardium (rabbit) (UniProt P68135); remark: listed apart in the source

Stiffness at pCa 7 (25°C), fibres reconstituted with acetyl Tm (from bovine myocardium) and Tn [1]: 0.038 T ac | Stiffness at pCa 7 (25°C), fibres reconstituted with nfTm and Tn [1]: 0.044 T ac | Stiffness at pCa 7 (25°C), fibres reconstituted with ∆2Tm and Tn [1]: 0.039 T ac | Stiffness at pCa 7 (25°C), fibres reconstituted with ∆3Tm and Tn [1]: 0.04 T ac | Tension at pCa 7 (25°C), fibres reconstituted with acetyl Tm (from bovine myocardium) and Tn [1]: 0.168 T ac | Tension at pCa 7 (25°C), fibres reconstituted with nfTm and Tn [1]: 0.065 T ac | Tension at pCa 7 (25°C), fibres reconstituted with ∆2Tm and Tn [1]: 0.109 T ac | Tension at pCa 7 (25°C), fibres reconstituted with ∆3Tm and Tn [1]: 0.196 T ac | Rigor stiffness (100 Hz, 25°C), fibres reconstituted with nfTm and Tn [2]: 166 T ac | Rigor stiffness (100 Hz, 25°C), fibres reconstituted with ∆2Tm and Tn [2]: 201 T ac | Rigor stiffness (100 Hz, 25°C), fibres reconstituted with ∆3Tm and Tn [2]: 249 T ac | Tension (T m), steady-state active tension in the standard activating solution at 25°C, fibres reconstituted with nfTm and Tn [2]: 1.51 T ac | Tension (T m), steady-state active tension in the standard activating solution at 25°C, fibres reconstituted with ∆2Tm and Tn [2]: 1.65 T ac | Tension (T m), steady-state active tension in the standard activating solution at 25°C, fibres reconstituted with ∆3Tm and Tn [2]: 0.91 T ac
Substance: myosin of bovine myocardium (thick filament, cross-bridges) (from UniProt Q9BE39 1-1935) (complex)
